From the supplement of paper PMC9170038

Columns and labels:
MS2 coat protein [1] = test: apparent KD of MS2 coat protein; designed switch direction (-1 OFF switch, 1 ON switch): 1; higher = weaker reporter binding; details: Eterna round: R98
Experimental: (§1)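 RNA-MaP: designed FMN/MS2 RNA switches (84 nt design region) are transcribed on-chip within common flanks and titrated with SNAP-549-labelled MS2 coat protein (about 1-3000 nM) in 100 mM Tris pH 7.5, 80 mM KCl, 4 mM MgCl2, without or with 200 uM FMN. Median apparent KD per design; activation ratio = KD,OFF / KD,ON.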

MS2 coat protein [2] = test: apparent KD of MS2 coat protein; higher = weaker reporter binding; details: Eterna round: R101
Experimental: as §1

MS2 coat protein [3] = test: apparent KD of MS2 coat protein, switch ON state; designed switch direction (-1 OFF switch, 1 ON switch): 1; higher = weaker reporter binding; details: FMN input: 0 or 200 uM; Eterna round: R93 (includes R88 designs)
Summary of the method: (§2)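 Titrations with SNAP-549-labelled MS2 coat protein ran in twofold steps from 0.7 or 1.5 nM to 3 µM, each step taking 0.8–1.5 h at the start and 10–20 min toward the end. The targets were designed RNA switches transcribed on-chip from Illumina sequencing clusters, held in 100 mM Tris-HCl pH 7.5, 80 mM KCl, 4 mM MgCl2, without or with constant ligand. Apparent KD was taken per design as the median of normalised cluster binding-curve fits.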

MS2 coat protein [4] = test: apparent KD of MS2 coat protein, switch OFF state (with FMN for OFF switches, without FMN for ON switches); designed switch direction (-1 OFF switch, 1 ON switch): 1; higher = weaker reporter binding; details: FMN input: 0 or 200 uM; Eterna round: R93 (includes R88 designs)
Summary of the method: as §2

Row | Sequence | apparent KD of MS2 coat protein (MS2 coat protein [1]; input ligand: FMN 200 uM) [nM] | apparent KD of MS2 coat protein (MS2 coat protein [1]; input ligand: none) [nM] | other results
1 | AAAUAAAAUAUAGGAUAUGGAAACAUGAGGAUCACCCAUGUAAAAUAAAAUAAAUAAUAAUAUAACCAGAAGGAUAAAAUAAAA [LRO001_SS NG 2] | 40.2 | 30.6 | –
2 | AAAUAAAUUCAAGGAUAUGACUCCGAAACGGAGUCAGAAGGUGAGGAUCACCCACCUAUGAUCAGACCUCAGGAAACUGAGGUC [#SharedSequence ExNG1 - 39] (puzzle (switch architecture): Exclusion NG 1) | – | – | apparent KD of MS2 coat protein (MS2 coat protein [2]; input ligand: FMN 200 uM): 6.56 nM; apparent KD of MS2 coat protein (MS2 coat protein [2]; input ligand: none): 6.19 nM
3 | AAAUAAAUUGAAGGAUAUCAGGGUGCACCUCAGUAAAACUGAGGUGCACCCUGAGAAGGUCGAGGAUCACCCGAUCUAAAUAAA [#SharedSequence SLExNG1: 1-2] (puzzle (switch architecture): Small Loop Exclusion NG 1) | – | – | apparent KD of MS2 coat protein (MS2 coat protein [2]; input ligand: FMN 200 uM): 12 nM; apparent KD of MS2 coat protein (MS2 coat protein [2]; input ligand: none): 8.76 nM
4 | AAUAAACAAUAAAAGACUGGAGCAAACUUCUGAGGAUCACCCAGAAGGCGUCACCUAAUAGGUGACGAGGAUAUGGAGCUCCAG [#SharedSequence IExNG# - 2] (puzzle (switch architecture): Inverted Exclusion NG 3) | – | – | apparent KD of MS2 coat protein (MS2 coat protein [2]; input ligand: FMN 200 uM): 6.36 nM; apparent KD of MS2 coat protein (MS2 coat protein [2]; input ligand: none): 5.76 nM
5 | AAUAAUCAGGUAGGAUAUGCUCAGGAUAACUGAGCAGAAGGACUAGAAACCUGAGGAUCACCCAGGUAACUGGAAUAAUAAUAA [Same State NG1 - A3C, U17G Submission 6B] | 57.4 | 121 | –
6 | AAUAGUGGCGUAGGAUAUCUGCGUACAUGAGGAUCACCCAUGUCUCCCAGCUGCUGAGCUGGGACAGAGAAGGGCGACCGCAUA [Digece] | 76.4 | 226 | –
7 | ACCAAUGGGUGAGGAUAUGCACAGGAUCACCGUGUAGAAGGCAUCAGGUAGAAGGUGCAGAGGAUCACCCUGUAAGGAUAUAUC [pwkr2 ssNG1 DX.14] | 885 | 563 | –
8 | AGGUAGGUCACAGGAUAUCCCGUGAGCUACAUGAGGAUCACCCAUGUAUCACGACGAAAGAAGAAGGAGAAGGGUGACCCUGAU [Atqula] | 28.3 | 186 | –
9 | AGUUACAAACUCAACAUGAGGAUCACCCAUGUACUCUCAUGUAAGGAUAUACAUUCGUAUAGAAAGUAGAAGGUACUAAUUAUG [JR_SSNG3_Sub90] | 485 | 659 | –
10 | AUGGGUUAAGGAGGAUAUAGAGGGAGGAGUAAACAUGAGGAUCACCCAUGUAUUUAAUUAGUUUACUAGAAGGCUUGUGAUUGU [1.8082e+07] | 52.7 | 33.9 | –
11 | AUUAACGGAGCUACAUGAGGAUCACCCAUGUACGGGUGAUCCUAGGAUAUGCCCGCAACUGUGUCGCAGAAGGAGGGUUGCCCA [Soterixe] | 37.6 | 25.6 | –
12 | CACGUCCUCACAGGAUAUGCUGGACUUUGUCCAGCAGAAGGGUGACAUGAGGAUCACCCAUGUUAAAGGACGUGUAUAUUUAAU [Denovo 24] | 126 | 652 | –
13 | CACUCCCGGUGAGGAUAUGCACAGGAUCACCGUGUAGAAGGCAUCAGGUAGAAGGUGCAGAGGAUCACCCUGUAAGGAUAUAUC [pwkr2 ssNG1 DX.12] | 94.5 | 300 | –
14 | CAGGCUGCCAGAGGAUAAUGGACAUGAGGAUCACCCAUGUGUCAGGAUAUGGGUUUCACAUGGACUCAGAAGGGACCAGCUCGA [Raraator] | 33.8 | 131 | –
15 | CGGAAUUGUACAGGAUAUGAGGGUGCCUGAGCCUCAGAAGGGUAGACCGACAUGAGGAUCACCCAUGUAUGCGGAUAACGUCCG [Sobela] | 1660 | 224 | –
16 | CGUUGUUCCGCAGGAUAUGUAUUGGAUUACAAUACAGAAGGGCGAUAACAUGAGGAUCACCCAUGUGUGGACAAUGAGGAAGAG [SameState #38 NG1] | 54.9 | 789 | –
17 | GCGCGCGGUUGAGGAUAUUUGCGUGCGGAUCGCCCGCGCACAUGAGGAUCACCCAUGUACGAGUAGGAGAAGGUGGCCCGUGUG [Same StateNG2] | 178 | 236 | –
18 | GCUUGCGACGCAGGAUAUGGGUGCCUAAACACGAGGAUCACCCGUGUAAAGGAAGCGAAAAGCUCUCAGAAGGGCGUCGCAGGC [United States 7 - Jieux - Same State NG 2] | 17.2 | 19.2 | –

Row | Sequence | apparent KD of MS2 coat protein (MS2 coat protein [1]; input ligand: FMN 200 uM) [nM] | apparent KD of MS2 coat protein (MS2 coat protein [1]; input ligand: none) [nM] | other results
19 | GGAGACCACACAGGAUAUGCUGGACUUUGUCCAGCAGAAGGGUGUUUAACAUGAGGAUCACCCAUGUAGGUCUCCAAAUUUAAU [Denovo 59] | 17.7 | 60.5 | –
20 | GGCGACGGUGUAGGAUAUGUGGGUUUCAAAGGGAUAGAAGGAUAGUUGGGAAUUAGGACAAGCAAACAUGAGGAUCACCCAUGU [Same STate NG 1] | 34.8 | 44 | –
21 | GGCUAACGGGCUAACAUGAGGAUCACCCAUGUGGACUCAUGGUAGGAUAUGCUGUACUUUGUACAGCAGAAGGGCCGGUGAGCC [Mat - Same State NG 3 - JL Mod - D9] | 283 | 726 | –
22 | GUCCCAGUCACAGGAUAUGGCUCCGUAACGGAACCAGAAGGGUGAUAUUCAGAAAACACACAUGAGGAUCACCCAUGUAAUAAA [Tiorbiti] | 164 | 469 | –
23 | UAAUUAUGGUGAGGAUAUGCACAGGAUCACCGUGUAGAAGGCAUCAGGUAGAAGGUGCAGAGGAUCACCCUGUAAGGAUAUAUC [pwkr2 ssNG1 DX.18] | 102 | 722 | –
24 | UCAACAAGGUGAGGAUAUGCACAGGAUCACCGUGUAGAAGGCAUCAGGUAGAAGGUGCAGAGGAUCACCCUGUAAGGAUAUACA [pwkr2 ssNG1 DX.9] | 526 | 1320 | –
25 | UCACUCACGUUAGGAUAUGGAUCGGAAAACGAUCCAGAAGGAACCUGCAAACCUGAGGAUCACCCGGGUUCCAAUAACGAGUGA [SameSame 9 - Jieux - Same State NG 1] | 458 | 778 | –
26 | UCCGCUAUCGCAGGAUAUUACAUGGGAAAGAGUACAUGAGGAUCACCCAUGUAAAAGAUCAUAAAUAAGAAGGGCGAUAGCGGA [Lame State 9 - Jieux - Same State NG 2] | 214 | 18.8 | –
27 | UCCUUACAUGAGGAUCACCCAUGUCGCAGGAAUCAAGGAUAUGGGUCCGCAAUGCGGAAACCAGAAGGUGACAAAA [Edusquanon] | – | – | apparent KD of MS2 coat protein (MS2 coat protein [3]): 165 nM; apparent KD of MS2 coat protein (MS2 coat protein [4]): 489 nM
28 | UGAAAACAUGAGGAUCACCCAUGUAGAAAUAUGGGAGGAUAUACGAAGACGAAAGUCAAAGUAGAAGGCCUAAAUG [Mat - Same State 1 - Eli mod - D110] | – | – | apparent KD of MS2 coat protein (MS2 coat protein [3]): 27.6 nM; apparent KD of MS2 coat protein (MS2 coat protein [4]): 72.1 nM
29 | UGAAGACAUGAGGAUCACCCAUGUGGGAUUAUGGGAGGAUAUACAAAGACGAGAGUCAGAGUAGAAGGCCUAGGAG [salish99-ss1-118(!)] | – | – | apparent KD of MS2 coat protein (MS2 coat protein [3]): 39.5 nM; apparent KD of MS2 coat protein (MS2 coat protein [4]): 67.9 nM
30 | UGAAGACAUGAGGAUCACCCAUGUGGGAUUAUGGGAGGAUAUACAAAGACGAGAGUCAGAGUAGAAGGCCUAGGAU [salish99-ss1-117(!)] | – | – | apparent KD of MS2 coat protein (MS2 coat protein [3]): 31.4 nM; apparent KD of MS2 coat protein (MS2 coat protein [4]): 57.9 nM
31 | UGGAAACAUGAGGAUCACCCAUGUAAAAGGUGGUCAGGAUAUGCGAAAAGAAAAAGAAAAGUAGAAGGGACAAGAA [Mod of Eli's Mod] | – | – | apparent KD of MS2 coat protein (MS2 coat protein [3]): 65.9 nM; apparent KD of MS2 coat protein (MS2 coat protein [4]): 67.8 nM
32 | UGGAGACAUGAGGAUCACCCAUGUGAGAAGAGGCGAGGAUAUCGAAAGAAAGAAGAGAAACGAGAAGGCGCGAGUG [salish99-SS1-042] | – | – | apparent KD of MS2 coat protein (MS2 coat protein [3]): 40.3 nM; apparent KD of MS2 coat protein (MS2 coat protein [4]): 46.9 nM
33 | UGGAUCAAUACAGGAUAUGGUGACGCACAUGAGGAUCACCCAUGUCCGCAGCGUGCUAAGCACGCCCAGAAGGGUAUUGACUUG [Enxe] | 106 | 858 | –
34 | UGGGAAUGAACAUGAGGAUCACCCAUGUCCCGGAAACGGAAUGAGGAUAUCCAUAGCAAAGCUAUGGAGAAGGCAUGGGUCCCA [SaneState 20 - Jieux - Same State NG 2] | 475 | 756 | –
35 | UUACAGCACAGGUAGGAUAUGUAGGGUGGUACAUGAGGAUCACCCAUGUAUCCACCCUUCGAAAGGCAGAAGGGCCUGUCGCUGC [Arsora] | – | – | apparent KD of MS2 coat protein (MS2 coat protein [3]): 24.6 nM; apparent KD of MS2 coat protein (MS2 coat protein [4]): 16.8 nM
